From patent US10064926B2, “Peptides and combination of peptides for use in immunotherapy against hepatocellular carcinoma (HCC) and other cancers” (Immatics biotechnologies GmbH, priority 2014, dated 2018)

Each substance was assayed against HLA-A*02 (Homo sapiens, UniProt P04439, D140Y/D185E/D98H/E176V/E277Q/G131W/G231S/I119V/I121R/I166T/I218V/N151K/N90K/P208A/P217A/Q86G/Q94H/R138H/R169H) (assay: UV-ligand exchange / peptide binding to MHC class I (beta2m ELISA)). Settings: Table 10B; peptide exchange yield; HLA-A*02 peptides.
Source text: Candidate peptides for T cell based therapies according to the present invention were further tested for their MHC binding capacity (affinity). The individual peptide-MHC complexes were produced by UV-ligand exchange, where a UV-sensitive peptide is cleaved upon UV-irradiation, and exchanged with the peptide of interest as analyzed. Only peptide candidates that can effectively bind and stabilize the peptide-receptive MHC molecules prevent dissociation of the MHC complexes. To determine the yield of the exchange reaction, an ELISA was performed based on the detection of the light chain (β2m) of stabilized MHC complexes. The assay was performed as generally described in Rodenko et al. (Rodenko B, Toebes M, Hadrup S R, van Esch W J, Molenaar A M, Schumacher T N, Ovaa H. Generation of peptide-MHC class I complexes through UV-mediated ligand exchange. Nat Protoc. 2006; 1(3):1120-32).
96 well MAXISorp plates (NUNC) were coated over night with 2 ug/ml streptavidin in PBS at room temperature, washed 4× and blocked for 1 h at 37° C. in 2% BSA containing blocking buffer. Refolded HLA-A*0201/MLA-001 monomers served as standards, covering the range of 15-500 ng/ml. Peptide-MHC monomers of the UV-exchange reaction were diluted 100 fold in blocking buffer. Samples were incubated for 1 h at 37° C., washed four times, incubated with 2 ug/ml HRP conjugated anti-β2m for 1 h at 37° C., washed again and detected with TMB solution that is stopped with […]. Absorption was measured at 450 nm. Candidate peptides that show a high exchange yield (preferably higher than 50%, most preferred higher than 75%) are generally preferred for a generation and production of antibodies or fragments thereof, and/or T cell receptors or fragments thereof, as they show sufficient avidity to the MHC molecules and prevent dissociation of the MHC complexes.

Substance	Peptide exchange (MHC class I binding score)
61 (KIADFELPTI; listed as Homo sapiens) [compound 61]	“++++” (≥75% = ++++)
62 (KIAGTNAEV; listed as Homo sapiens) [compound 62]	“++” (≥20% = ++)
63 (KIDEKNFVV; listed as Homo sapiens) [compound 63]	“+++” (≥50 = +++)
64 (KILEETLYV; listed as Homo sapiens) [compound 64]	“+++” (≥50 = +++)
65 (KLFSGDELLEV; listed as Homo sapiens) [compound 65]	“+++” (≥50 = +++)
66 (KLHEEIDRV; listed as Homo sapiens) [compound 66]	“+++” (≥50 = +++)
67 (KLKETIQKL; listed as Homo sapiens) [compound 67]	“+++” (≥50 = +++)
68 (KLLAATVLLL; listed as Homo sapiens) [compound 68]	“++” (≥20% = ++)
69 (KLLDEVTYLEA; listed as Homo sapiens) [compound 69]	“++++” (≥75% = ++++)
70 (KLLDLETERILL; listed as Homo sapiens) [compound 70]	“++++” (≥75% = ++++)
71 (KLLDNWDSV; listed as Homo sapiens) [compound 71]	“++++” (≥75% = ++++)
72 (KLSEAVTSV; listed as Homo sapiens) [compound 72]	“+++” (≥50 = +++)
74 (KLYDLELIV; listed as Homo sapiens) [compound 74]	“+++” (≥50 = +++)
75 (KQMEPLHAV; listed as Homo sapiens) [compound 75]	“++” (≥20% = ++)
76 (LLADIGGDPFAA; listed as Homo sapiens) [compound 76]	“+++” (≥50 = +++)
77 (LLHEENFSV; listed as Homo sapiens) [compound 77]	“+++” (≥50 = +++)
78 (LLIDDEYKV; listed as Homo sapiens) [compound 78]	“+++” (≥50 = +++)
80 (LLYEGKLTL; listed as Homo sapiens) [compound 80]	“++++” (≥75% = ++++)

Substance	Peptide exchange (MHC class I binding score)
81 (NLASFIEQVAV; listed as Homo sapiens) [compound 81]	“+++” (≥50 = +++)
82 (NVFDGLVRV; listed as Homo sapiens) [compound 82]	“+++” (≥50 = +++)
83 (QLHDFVMSL; listed as Homo sapiens) [compound 83]	“++++” (≥75% = ++++)
84 (QLTPVLVSV; listed as Homo sapiens) [compound 84]	“+++” (≥50 = +++)
85 (RILPKVLEV; listed as Homo sapiens) [compound 85]	“+++” (≥50 = +++)
86 (RLAAFYSQV; listed as Homo sapiens) [compound 86]	“+++” (≥50 = +++)
87 (RLFEENDVNL; listed as Homo sapiens) [compound 87]	“+++” (≥50 = +++)
88 (RLIDRIKTV; listed as Homo sapiens) [compound 88]	“++” (≥20% = ++)
89 (RLIEEIKNV; listed as Homo sapiens) [compound 89]	“++” (≥20% = ++)
90 (RLLDVLAPLV; listed as Homo sapiens) [compound 90]	“+++” (≥50 = +++)
91 (RLPDIPLRQV; listed as Homo sapiens) [compound 91]	“+++” (≥50 = +++)
92 (RLPPDTLLQQV; listed as Homo sapiens) [compound 92]	“+++” (≥50 = +++)
93 (RLYTMDGITV; listed as Homo sapiens) [compound 93]	“++” (≥20% = ++)
94 (RMSDVVKGV; listed as Homo sapiens) [compound 94]	“+++” (≥50 = +++)
95 (SICNGVPMV; listed as Homo sapiens) [compound 95]	“+++” (≥50 = +++)
96 (SLLEEPNVIRV; listed as Homo sapiens) [compound 96]	“++++” (≥75% = ++++)
97 (SLLPQLIEV; listed as Homo sapiens) [compound 97]	“++++” (≥75% = ++++)

Second part, the substance after the results:

Peptide exchange (MHC class I binding score)	Substance
“+++” (≥50 = +++)	98 (SLLSPEHLQYL; listed as Homo sapiens) [compound 98]
“++++” (≥75% = ++++)	99 (SLSAFLPSL; listed as Homo sapiens) [compound 99]
“++” (≥20% = ++)	100 (SLVGDIGNVNM; listed as Homo sapiens) [compound 100]
“+++” (≥50 = +++)	101 (SLWEGGVRGV; listed as Homo sapiens) [compound 101]
“+++” (≥50 = +++)	102 (SLWSVARGV; listed as Homo sapiens) [compound 102]
“+++” (≥50 = +++)	103 (SMGDHLWVA; listed as Homo sapiens) [compound 103]
“+++” (≥50 = +++)	104 (SVWFGPKEV; listed as Homo sapiens) [compound 104]
“++++” (≥75% = ++++)	105 (SVYDGKLLI; listed as Homo sapiens) [compound 105]
“+++” (≥50 = +++)	106 (TLAAIIHGA; listed as Homo sapiens) [compound 106]
“++++” (≥75% = ++++)	107 (TLGQFYQEV; listed as Homo sapiens) [compound 107]
“+++” (≥50 = +++)	108 (TLLKKISEA; listed as Homo sapiens) [compound 108]
“+++” (≥50 = +++)	109 (TLYALSHAV; listed as Homo sapiens) [compound 109]
“++++” (≥75% = ++++)	110 (TVGGSEILFEV; listed as Homo sapiens) [compound 110]
“+++” (≥50 = +++)	111 (TVMDIDTSGTFNV; listed as Homo sapiens) [compound 111]
“++++” (≥75% = ++++)	112 (VLGEVKVGV; listed as Homo sapiens) [compound 112]
“++++” (≥75% = ++++)	113 (VLMDKLVEL; listed as Homo sapiens) [compound 113]
“+++” (≥50 = +++)	114 (VLSQVYSKV; listed as Homo sapiens) [compound 114]
“+++” (≥50 = +++)	115 (VVLDDKDYFL; listed as Homo sapiens) [compound 115]
“+++” (≥50 = +++)	117 (YAFPKSITV; listed as Homo sapiens) [compound 117]
“+++” (≥50 = +++)	118 (YLDDEKNWGL; listed as Homo sapiens) [compound 118]
“+++” (≥50 = +++)	119 (YLDKNLTVSV; listed as Homo sapiens) [compound 119]
“++” (≥20% = ++)	120 (YLGEEYVKA; listed as Homo sapiens) [compound 120]
“+++” (≥50 = +++)	121 (YLITGNLEKL; listed as Homo sapiens) [compound 121]
“++” (≥20% = ++)	122 (YLSQAADGAKVL; listed as Homo sapiens) [compound 122]
